Measurements from US20120251444A1 (RAPTOR PHARMACEUTICALS, published 2012).
Like-named read-outs stand apart in the source and are kept apart here.

Legend:
[1] = biological target: T1, recombinant human LRP1 cluster II (R&D Systems, amino acids 786-1165, with C-terminal Fc tag) (human, UniProt Q07954 786-1165); experiment: solid phase competition, inhibition of 2 nM RAP d3 binding to immobilized LRP1-C2
T1 construct: range 786-1165; Bought from R&D Systems; coated on plates; also called LRP1-C2; not shown: C-terminal Fc tag of the bought protein
T1 sequence (looked up): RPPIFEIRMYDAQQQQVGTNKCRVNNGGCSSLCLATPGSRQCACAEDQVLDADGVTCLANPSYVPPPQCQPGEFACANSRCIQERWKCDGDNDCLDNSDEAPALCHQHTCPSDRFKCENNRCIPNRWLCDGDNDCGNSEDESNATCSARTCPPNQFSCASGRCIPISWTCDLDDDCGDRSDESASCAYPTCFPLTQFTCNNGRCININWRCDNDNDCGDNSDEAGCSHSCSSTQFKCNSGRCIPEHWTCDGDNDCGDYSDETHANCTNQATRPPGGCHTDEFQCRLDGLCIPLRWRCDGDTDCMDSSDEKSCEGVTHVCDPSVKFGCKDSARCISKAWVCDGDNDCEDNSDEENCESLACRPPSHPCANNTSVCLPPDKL
Description: (§1) Control wells contained no added inhibitor. Wells were washed with TBS supplemented with 5 mM CaCl₂ and 0.05% Tween-20. […] Excess HRP conjugate was removed and wells washed. Color was developed using TMB reagents (BioRad, Hercules, Calif.).

[2] = biological target: T1, recombinant human LRP1 cluster II (R&D …); experiment: solid phase competition, inhibitor preincubated with immobilized LRP1-C2, then 2 nM RAP d3
Description: as §1

[3] = biological target: T1, recombinant human LRP1 cluster II (R&D …); experiment: solid phase competition, EC50 against that of the mRAPc monomer
Description: as §1

[4] = biological target: T1, recombinant human LRP1 cluster II (R&D …); experiment: as above; remark: listed apart in the source
Description: as §1

B1: mature RAP (full-length receptor-associated protein) (ligand)
chain: YSREKNQPKPSPKRESGEEFRMEKLNQLWEKAQRLHLPPVRLAELHADLKIQERDELAWKKLKLDGLDEDGEKEARLIRNLNVILAKYGLDGKKDARQVTSNSLSGTQEDGLDDPRLEKLWHKAKTSGKFSGEELDKLWREFLHHKEKVHEYNVLLETLSRTEEIHENVISPSDLSDIKGSVLHSRHTELKEKLRSINQGLDRLRRVSHQGYSTEAEFEEPRVIDLWDLAQSANLTDKELEAFREELKHFEAKIEKHNHYQKQLEIAHEKLRHAESVGDGERVSRSREKHALLEGRTKELGYTVKKHLQDLSGRISRARHNEL
notes: also called full-length RAP
B1 gave an EC50 [1] of 0.8 nM, an EC50 [2] of 0.5 nM and a relative to monomer [3] of 40 fold. The relative to monomer [4] was 36 fold.
